This is an account of results in publication PMC7529705.

“And” between values parts separate entries of the source, which are not always exact repeats. Equal values may be shown once.

The target in the assay is WD-40 repeat-containing protein 5 (WDR5), full-length (human) (UniProt P61964). Nature of the assay: ITC. On the technique in general: ITC needs no label: the signal is the heat of the interaction.

Usually Kd stands for the equilibrium constant for the complex coming apart. Read a high Kd as lower affinity. On to “Histone H3 1–7aa H3R2me1 peptide (from UniProt P68431 2-8)”, for which the equilibrium dissociation constant (Kd) was 8.1 µM and 9 µM.
Then “Histone H3 1–7aa H3R2me2s peptide (from UniProt P68431 2-8)”, with 10.6 µM and 10.2 µM.
The figure for “Histone H3 1–7aa unmodified peptide (from UniProt P68431 2-8)” is 11 µM and 11.8 µM.
